The results in this text go back to paper PMC8406179.

Experiment [1] addresses endogenous murine Rb1 (UniProt P13405). Briefly: immunoprecipitation/Western blot (anti-HA IP of E7, Rb1 immunoblot). Conditions: NIH 3T3 cells, transient expression; parent: 1. (In general: A western blot detects proteins with antibodies after separation by electrophoresis.)
Experiment [2] addresses retinoblastoma tumor suppressor protein RB1 (endogenous, HCT116) (UniProt P06400). Briefly: immunoprecipitation/Western blot (anti-Flag IP of E7, RB1 immunoblot). Conditions: parent: 1.
Sequence of UniProt P06400 (P06400 whole entry): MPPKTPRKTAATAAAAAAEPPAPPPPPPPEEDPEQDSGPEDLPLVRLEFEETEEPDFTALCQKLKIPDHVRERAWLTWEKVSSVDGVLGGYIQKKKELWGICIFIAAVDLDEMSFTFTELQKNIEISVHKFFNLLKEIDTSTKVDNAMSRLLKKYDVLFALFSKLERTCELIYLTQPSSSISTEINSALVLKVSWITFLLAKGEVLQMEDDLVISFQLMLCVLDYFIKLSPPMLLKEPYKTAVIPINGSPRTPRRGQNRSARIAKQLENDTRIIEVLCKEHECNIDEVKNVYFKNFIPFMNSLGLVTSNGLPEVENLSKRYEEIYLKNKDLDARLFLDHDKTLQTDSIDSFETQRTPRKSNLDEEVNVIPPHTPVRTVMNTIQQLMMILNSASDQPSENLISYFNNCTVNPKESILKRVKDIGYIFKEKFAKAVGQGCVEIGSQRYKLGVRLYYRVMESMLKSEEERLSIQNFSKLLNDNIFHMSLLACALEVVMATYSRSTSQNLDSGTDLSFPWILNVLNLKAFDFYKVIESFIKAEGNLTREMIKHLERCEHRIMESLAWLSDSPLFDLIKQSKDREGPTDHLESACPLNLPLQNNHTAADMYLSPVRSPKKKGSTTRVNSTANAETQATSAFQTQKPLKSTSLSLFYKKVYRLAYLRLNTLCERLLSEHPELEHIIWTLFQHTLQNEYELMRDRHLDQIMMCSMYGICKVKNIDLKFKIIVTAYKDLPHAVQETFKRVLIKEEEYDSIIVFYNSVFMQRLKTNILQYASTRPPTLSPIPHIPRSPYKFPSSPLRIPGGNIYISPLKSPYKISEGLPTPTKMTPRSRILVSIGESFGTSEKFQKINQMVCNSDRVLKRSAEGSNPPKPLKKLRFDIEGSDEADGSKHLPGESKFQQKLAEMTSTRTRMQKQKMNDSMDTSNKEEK
Setting [3] is: HCT116 cells, transient expression.

Sequence of UniProt P13405 (P13405 whole entry): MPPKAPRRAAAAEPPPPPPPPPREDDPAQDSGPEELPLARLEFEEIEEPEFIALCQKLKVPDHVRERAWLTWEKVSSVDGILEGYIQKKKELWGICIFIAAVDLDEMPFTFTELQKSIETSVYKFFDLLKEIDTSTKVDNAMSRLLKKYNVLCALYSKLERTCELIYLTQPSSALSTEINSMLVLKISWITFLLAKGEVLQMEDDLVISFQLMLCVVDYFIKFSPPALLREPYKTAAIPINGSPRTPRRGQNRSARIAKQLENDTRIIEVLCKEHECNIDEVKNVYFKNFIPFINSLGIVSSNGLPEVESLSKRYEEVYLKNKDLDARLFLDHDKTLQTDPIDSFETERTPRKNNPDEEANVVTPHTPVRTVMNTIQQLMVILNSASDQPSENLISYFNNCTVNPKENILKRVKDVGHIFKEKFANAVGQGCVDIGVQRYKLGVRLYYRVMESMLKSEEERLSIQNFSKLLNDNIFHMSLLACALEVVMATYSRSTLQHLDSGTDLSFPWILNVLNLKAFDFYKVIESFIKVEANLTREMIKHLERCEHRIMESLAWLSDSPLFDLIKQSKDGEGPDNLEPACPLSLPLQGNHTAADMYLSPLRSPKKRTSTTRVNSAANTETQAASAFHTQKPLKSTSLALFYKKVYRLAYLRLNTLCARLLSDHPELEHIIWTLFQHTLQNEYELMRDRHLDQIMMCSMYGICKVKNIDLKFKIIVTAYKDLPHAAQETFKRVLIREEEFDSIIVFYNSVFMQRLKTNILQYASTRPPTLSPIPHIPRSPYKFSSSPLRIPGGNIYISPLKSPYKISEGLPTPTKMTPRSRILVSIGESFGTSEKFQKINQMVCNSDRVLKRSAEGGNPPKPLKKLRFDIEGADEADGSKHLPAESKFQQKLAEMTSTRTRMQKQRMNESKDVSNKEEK

Regarding “N-terminally FLAG/HA epitope-tagged MmuPV1 E7 D90A”, the figures for the ratio to parent in experiment [1], in experiment [2] (setting [3]) and in experiment [2] were 0.02, 0.01 and 0.05, respectively.
Take “N-terminally FLAG/HA epitope-tagged MmuPV1 E7 D90N”: the ratio to parent in experiment [2] was found to be 0.27.
On the same count and under the same terms, as for “N-terminally FLAG/HA epitope-tagged MmuPV1 E7 D90T”, the figure is 0.07.
On to “N-terminally FLAG/HA epitope-tagged MmuPV1 E7 E84R; S85R”, for which the ratio to parent in experiment [2] (setting [3]) was found to be 0.65.
Still for that read-out and setting: as for “N-terminally FLAG/HA epitope-tagged MmuPV1 E7 R57D”, the figure is 0.64.
